Measured values from US20250026849A1 (ARCELLX, published 2025).

T1: CD123 (Homo sapiens (Human), UniProt P26951 19-305, limits assumed)
T1 construct: The CD123 construct used in the ELISA is not described; also called CD123-Signal
T1 sequence: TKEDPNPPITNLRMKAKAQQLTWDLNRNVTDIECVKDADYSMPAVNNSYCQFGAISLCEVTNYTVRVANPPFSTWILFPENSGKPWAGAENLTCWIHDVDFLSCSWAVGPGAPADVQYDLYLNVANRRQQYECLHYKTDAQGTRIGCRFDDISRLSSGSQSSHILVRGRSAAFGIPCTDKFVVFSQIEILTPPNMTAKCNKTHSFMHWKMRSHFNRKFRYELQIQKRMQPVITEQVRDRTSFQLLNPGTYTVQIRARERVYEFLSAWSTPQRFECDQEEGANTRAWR

B1: D domain of SEQ ID NO: 582 (designed binder)
chain: MGSWSEFDQRLEAIWNRLDALGGSEAELADFEREIAYFENQLQWYKGKGNPEVEALNNEAFAIVDELGAYRHN
B2: D domain of SEQ ID NO: 597 (designed binder)
chain: MGSWYEFYERLWAIDDRLWALGGSEAELAEFEDSIATFEPSLQMYKGKGNPEVEALVAEAWAIFDELAAYRHN
B3: D domain of SEQ ID NO: 593 (designed binder)
chain: MGSWVEFIMRLDAIYERLDALGGSEAELAEFEWHIADFEDHLQWYKGKGNPEVEALFEEADAIWEELWAYRHN
B4: D domain of SEQ ID NO: 606 (designed binder)
chain: MGSWTEFEERLEAIWDRLYALGGSEAELAAFEWDIAYFEDGLQEYKGKGNPEVEALFMEAEAIIRELKAYRHN
B5: D domain of SEQ ID NO: 599 (designed binder)
chain: MGSWSEFWFRLDAIEDRLWALGGSEAELAEFEDNIALFEYSLQHYKGKGNPEVEALVKEANAIDDELGAYRHN
B6: D domain of SEQ ID NO: 588 (designed binder)
chain: MGSWEEFDTRLLAIFGRLGALGGSEAELALFEMLIAKFEDDLQNYKGKGNPEVEALSEEAFAIDHELGAYRHN
B7: D domain of SEQ ID NO: 607 (designed binder)
chain: MGSWYEFEDRLAAIWDRLNALGGSEAELAIFEWDIAWFEEGLQEYKGKGNPEVEALKHEASAIQTELFAYRHN
B8: D domain of SEQ ID NO: 598 (designed binder)
chain: MGSWFEFDQRLDAITFRLWALGGSEAELAEFEDVIALFEYHLQDYKGKGNPEVEALEVEAWAIFHELGAYRHN
B9: D domain of SEQ ID NO: 610 (designed binder)
chain: MGSWFEFTIRLEAIQDRLDALGGSEAELAWFEWDIAEFEEGLQFYKGKGNPEVEALHTEADAIMNELVAYRHN
B10: D domain of SEQ ID NO: 605 (designed binder)
chain: MGSWAEFDSRLIAIFDRLWALGGSEAELAWFEDDIAQFEQHLQAYKGKGNPEVEALRQEADAITFELKAYRHN
B11: D domain of SEQ ID NO: 601 (designed binder)
chain: MGSWYEFDDRLWAIFDRLFALGGSEAELAFFEDSIAEFEEELQHYKGKGNPEVEALYLEAWAIENELGAYRHN
B12: D domain of SEQ ID NO: 611 (designed binder)
chain: MGSWYEFVSRLDAIEYRLWALGGSEAELAWFEWDIADFEQGLQFYKGKGNPEVEALAQEANAIGSELTAYRHN
B13: D domain of SEQ ID NO: 591 (designed binder)
chain: MGSWNEFYERLEAIDRRLFALGGSEAELALFEWMIADFEDDLQMYKGKGNPEVEALINEAGAIGFELEAYRHN
B14: D domain of SEQ ID NO: 586 (designed binder)
chain: MGSWEEFYMRLVAIHMRLRALGGSEAELAVFENYIAEFEEYLQYYKGKGNPEVEALTIEADAIGTELGAYRHN
B15: D domain of SEQ ID NO: 583 (designed binder)
chain: MGSWYEFDERLWAIWERLDALGGSEAELAHFEWVIADFENDLQWYKGKGNPEVEALEFEAEAIVTELHAYRHN
B16: D domain of SEQ ID NO: 603 (designed binder)
chain: MGSWSEFVDRLDAIFDRLWALGGSEAELAWFEDTIAHFEWNLQEYKGKGNPEVEALNGEADAITDELHAYRHN
B17: D domain of SEQ ID NO: 587 (designed binder)
chain: MGSWDEFYYRLVAITHRLHALGGSEAELAWFEDDIAGFEWDLQTYKGKGNPEVEALYKEAGAIGMELTAYRHN
B18: D domain of SEQ ID NO: 589 (designed binder)
chain: MGSWREFDQRLWAIDWRLEALGGSEAELAMFEWMIATFEDDLQWYKGKGNPEVEALYREAFAIDWELDAYRHN
B19: D domain of SEQ ID NO: 592 (designed binder)
chain: MGSWTEFTQRLEAIVDRLFALGGSEAELAEFENSIADFEWDLQWYKGKGNPEVEALNREAVAIDNELWAYRHN
B20: D domain of SEQ ID NO: 596 (designed binder)
chain: MGSWEEFHWRLGAIDARLEALGGSEAELAWFEDGIADFEAILQDYKGKGNPEVEALDSEAVAIHHELWAYRHN
B21: D domain of SEQ ID NO: 600 (designed binder)
chain: MGSWYEFWDRLTAIEHRLWALGGSEAELAYFEDSIAHFEGSLQVYKGKGNPEVEALYKEAEAIEWELEAYRHN
B22: D domain of SEQ ID NO: 604 (designed binder)
chain: MGSWAEFDSRLDAIAQRLFALGGSEAELAHFEDFIAQFEYSLQEYKGKGNPEVEALSNEADAIFNELKAYRHN
B23: D domain of SEQ ID NO: 608 (designed binder)
chain: MGSWLEFESRLWAIWDRLDALGGSEAELAHFEQDIADFEMSLQEYKGKGNPEVEALIREAEAIETELYAYRHN
B24: D domain of SEQ ID NO: 584 (designed binder)
chain: MGSWMEFDYRLEAIWMRLIALGGSEAELADFESSIADFEHHLQSYKGKGNPEVEALEWEAFAIGVELDAYRHN
B25: D domain of SEQ ID NO: 594 (designed binder)
chain: MGSWNEFLLRLDAIEHRLFALGGSEAELAEFEWEIADFEDDLQWYKGKGNPEVEALVEEAEAIDVELVAYRHN
B26: D domain of SEQ ID NO: 581 (designed binder)
chain: MGSWTEFDDRLFAIYWRLDALGGSEAELAWFEEVIAEFENDLQVYKGKGNPEVEALDDEAHAISIELEAYRHN
B27: D domain of SEQ ID NO: 602 (designed binder)
chain: MGSWNEFVERLSAIDHRLWALGGSEAELADFEQQIAEFEIHLQEYKGKGNPEVEALDFEADAIFDELLAYRHN
B28: D domain of SEQ ID NO: 590 (designed binder)
chain: MGSWEEFHERLDAIDERLEALGGSEAELAFFEDDIASFEDWLQWYKGKGNPEVEALSREADAINFELEAYRHN
B29: D domain of SEQ ID NO: 585 (designed binder)
chain: MGSWYEFESRLEAIWWRLEALGGSEAELAQFEQYIADFEQHLQWYKGKGNPEVEALDWEADAIWLELQAYRHN
B30: D domain of SEQ ID NO: 595 (designed binder)
chain: MGSWYEFNMRLGAIDDRLQALGGSEAELAWFEDMIAIFEDDLQIYKGKGNPEVEALEQEAAAIHQELWAYRHN
B31: D domain of SEQ ID NO: 609 (designed binder)
chain: MGSWMEFEDRLIAIWARLDALGGSEAELAWFEADIADFEESLQEYKGKGNPEVEALIFEAIAINKELMAYRHN
B32: D domain of SEQ ID NO: 580 (designed binder)
chain: MGSWVEFDDRLDAIWERLDALGGSEAELAWFEEQIAVFEHQLQDYKGKGNPEVEALNQEAEAIDLELKAYRHN

Each binder was assayed against T1, CD123 (assay: ELISA).
Design: unit not given here
An ELISA_avg of 3.4 was found for B1 in this work.
An ELISA_avg of 3.6 was found for B2 in this work.
An ELISA_avg of 6.4 was found for B3 in this work.
An ELISA_avg of 5.9 was found for B4 in this work.
An ELISA_avg of 4.5 was found for B5 in this work.
An ELISA_avg of 6.7 was found for B6 in this work.
An ELISA_avg of 6.4 was found for B7 in this work.
An ELISA_avg of 3.2 was found for B8 in this work.
An ELISA_avg of 3.5 was found for B9 in this work.
An ELISA_avg of 3.6 was found for B10 in this work.
An ELISA_avg of 4.7 was found for B11 in this work.
An ELISA_avg of 3.2 was found for B12 in this work.
An ELISA_avg of 5.2 was found for B13 in this work.
An ELISA_avg of 4.4 was found for B14 in this work.
An ELISA_avg of 3.6 was found for B15 in this work.
An ELISA_avg of 5.3 was found for B16 in this work.
An ELISA_avg of 5.4 was found for B17 in this work.
An ELISA_avg of 3.4 was found for B18 in this work.
An ELISA_avg of 3.9 was found for B19 in this work.
An ELISA_avg of 3.3 was found for B20 in this work.
An ELISA_avg of 4.4 was found for B21 in this work.
An ELISA_avg of 3.6 was found for B22 in this work.
An ELISA_avg of 3.4 was found for B23 in this work.
An ELISA_avg of 3.1 was found for B24 in this work.
An ELISA_avg of 3.2 was found for B25 in this work.
An ELISA_avg of 6.4 was found for B26 in this work.
An ELISA_avg of 3.2 was found for B27 in this work.
An ELISA_avg of 4.3 was found for B28 in this work.
An ELISA_avg of 4.4 was found for B29 in this work.
An ELISA_avg of 3.8 was found for B30 in this work.
An ELISA_avg of 3.7 was found for B31 in this work.
An ELISA_avg of 5 was found for B32 in this work.
